This is an account of results in US20250115655A1, “PHARMACEUTICALS AND DEVICES FOR THE COVALENT IMMOBILIZATION TO THE EXTRACELLULAR MATRIX BY TRANSGLUTAMINASE” (JULIUS-MAXIMILIANS-UNIVERSITÄT WÜRZBURG, priority 2017, published 2025).

Ends that are not written are not given here.

Holding throughout (type): biochemical
The target of assay [1] is T1, Factor XIIIa (Homo sapiens, UniProt P00488).
T1 construct: purchased Fibrogammin®
T1 sequence (P00488 39-732 limits assumed): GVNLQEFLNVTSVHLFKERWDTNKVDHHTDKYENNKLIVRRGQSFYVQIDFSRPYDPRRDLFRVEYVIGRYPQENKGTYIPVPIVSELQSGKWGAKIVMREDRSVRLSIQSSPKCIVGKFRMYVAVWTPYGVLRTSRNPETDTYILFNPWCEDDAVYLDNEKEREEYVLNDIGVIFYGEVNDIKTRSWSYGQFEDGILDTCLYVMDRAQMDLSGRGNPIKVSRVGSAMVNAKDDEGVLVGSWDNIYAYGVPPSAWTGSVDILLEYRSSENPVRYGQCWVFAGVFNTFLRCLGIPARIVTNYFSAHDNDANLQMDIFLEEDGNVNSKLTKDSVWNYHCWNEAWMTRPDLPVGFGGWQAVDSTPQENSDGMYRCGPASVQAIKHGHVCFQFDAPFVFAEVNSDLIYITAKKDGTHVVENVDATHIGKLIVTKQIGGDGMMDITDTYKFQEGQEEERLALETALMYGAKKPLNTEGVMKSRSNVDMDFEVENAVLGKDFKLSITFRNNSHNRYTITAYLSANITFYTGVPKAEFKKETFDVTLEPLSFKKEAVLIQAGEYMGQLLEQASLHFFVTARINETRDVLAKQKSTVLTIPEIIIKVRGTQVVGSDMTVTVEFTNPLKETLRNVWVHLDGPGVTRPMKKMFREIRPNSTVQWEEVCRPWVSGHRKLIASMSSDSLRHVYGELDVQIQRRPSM
The assay is described as follows: Crosslinking of D domain peptides to a glutamine substrate derived from α-2 plasmin inhibitor, catalyzed by FXIIIa, RP-HPLC. The source says: Using solid phase peptide synthesis, the isolated peptide sequence of the D domain of human IGF-I (SEQ ID NO: 1) and mouse IGF-I (SEQ ID NO: 6) were synthesized and purified using preparative HPLC to achieve >95% purity. Additionally, a collection of N-terminally truncated versions of both sequences were created, in order to test if 7 or less amino acids are sufficient to be recognized by Factor XIIIa. According to a trypsin digest of coupled IGF-I, only K68 is modified and therefore, a reduction of the sequence to the last 3 amino acids could be possible. The truncated versions were manufactured and purified accordingly. Lyophilized peptides were dissolved in Tris buffer (20 mM Tris-HCl, 150 mM NaCl, pH 7.6) and reacted with a glutamine substrate (SEQ ID NO: 13, derived from α-2 plasmin inhibitor) in presence of 0.1 M calcium chloride and 10 U/ml Factor XIIIa (Fibrogammin®, activated with 0.02 U/ml thrombin). Following 30 minutes incubation at 37° C., the coupling reaction was stopped and the amount of crosslinked peptide analyzed using analytical RP-HPLC. The crosslinking ratios using equimolar amounts of both peptides (D domain and glutamine acceptor) are depicted in Table 1.

Assay [2] addresses T1, Factor XIIIa. Described as above. The source holds these as a separate data set.
The test system of a further assay is fibronectin. Kind of assay: Immobilization of eGFP modified with the D domain on plasma fibronectin and ECM using factor XIIIa. On the procedure:
The same coupling reaction as described for IGF-I (Example 3) was also performed with enhanced green fluorescent protein (eGFP), previously modified with the D domain of human IGF-I (SEQ ID NO: 1), and immobilized using factor XIIIa (FIGS. 8A-8B). […] FIGS. 8A-8B: (8A) Western Blot of enhanced green fluorescent protein modified with the D domain (SEQ ID NO: 1) (eGFP-D domain, lane #1) after incubation with fibronectin in absence (lane #2) and presence (lane #3) of Factor XIIIa. (8B) Confocal laser scanning microscopy images of eGFP modified with the D domain (SEQ ID NO: 1) and immobilized on isolated ECM in presence (panel 1) or absence (panel 2) of factor XIIIa. The immobilized eGFP was visualized with a monoclonal eGFP antibody (green) und co-localized with fibronectin (red).

The mark [3] stands for this setting: equimolar peptide and glutamine substrate, incubation for 30 minutes with 10 U/ml FXIIIa, 37° C.

As for “AKSA (listed as Homo sapiens) [SEQ ID NO: 5, N-terminally truncated human D domain]”, the “Crosslinking Efficacy (1:1 molar ratio)*” value with Factor XIIIa [1] (setting [3]) is recorded as 49.52 ± 1.29.
Same read-out and setting: with “KAA (listed as Mus musculus) [SEQ ID NO: 10 (−AS 67)]” the figure was 24.68 ± 3.42; with “KPAKSA (listed as Homo sapiens) [SEQ ID NO: 3, N-terminally truncated human D domain]”, 58.37 ± 2.10.
Consider “KPTKAA (listed as Mus musculus) [SEQ ID NO: 8, N-terminally truncated mouse D domain]”, for which the “Crosslinking Efficacy (1:1 molar ratio)*” value in the assay with Factor XIIIa [1] (setting [3]) turned out to be 55.68 ± 3.25.
Take “KSA (listed as Homo sapiens) [SEQ ID NO: 5 (−AS 67)]”: in the assay with Factor XIIIa [1] (setting [3]), the “Crosslinking Efficacy (1:1 molar ratio)*” value is recorded as 21.40 ± 1.96.
As to “LKPAKSA (listed as Homo sapiens) [SEQ ID NO: 2, N-terminally truncated human D domain]”, in the assay with Factor XIIIa [1] (setting [3]), the “Crosslinking Efficacy (1:1 molar ratio)*” value was 72.45 ± 1.57.
On the same count and under the same terms, with “LKPTKAA (listed as Mus musculus) [SEQ ID NO: 7, N-terminally truncated mouse D domain]” the figure was 69.42 ± 8.62.
For “PAKSA (listed as Homo sapiens) [SEQ ID NO: 4, N-terminally truncated human D domain]”, in the assay with Factor XIIIa [1] (setting [3]), the “Crosslinking Efficacy (1:1 molar ratio)*” value came to 44.18 ± 3.23.
For the substance “PLKPAKSA (listed as Homo sapiens) [SEQ ID NO: 1, isolated D domain of human IGF-I]”, the “Crosslinking Efficacy (1:1 molar ratio)*” value was 44.48 ± 2.45 with Factor XIIIa [2] (molar excess of the glutamine sequence 0.5); 84.67 ± 2.02 with Factor XIIIa [2] (molar excess of the glutamine sequence 2.5); 87.53 ± 5.33 with Factor XIIIa [2] (molar excess of the glutamine sequence 3.75); 84.91 ± 6.23 with Factor XIIIa [2] (molar excess of the glutamine sequence 5); 88.67 ± 6.52 in the assay with Factor XIIIa [2] (molar excess of the glutamine sequence 10); 82.94 ± 0.79 with Factor XIIIa [1] (setting [3]). In addition, in the assay with Factor XIIIa [1] (molar excess of the glutamine sequence 1), the “Crosslinking Efficacy (1:1 molar ratio)*” value stood at 81.06 ± 5.13. For the same substance, the “conversion, time course of the coupling reaction with the Q peptide” value with Factor XIIIa [2] (within 10 minutes (FIG. 1)) was “about 80%”.
Regarding “PLKPTKAA (listed as Mus musculus) [SEQ ID NO: 6, isolated D domain of mouse IGF-I]”, the “Crosslinking Efficacy (1:1 molar ratio)*” value in the assay with Factor XIIIa [1] (setting [3]) is 84.16 ± 7.76.
As for “PTKAA (listed as Mus musculus) [SEQ ID NO: 9, N-terminally truncated mouse D domain]”, the “Crosslinking Efficacy (1:1 molar ratio)*” value with Factor XIIIa [1] (setting [3]) is recorded as 33.69 ± 1.41.
The same measure, in the same setting: with “TKAA (listed as Mus musculus) [SEQ ID NO: 10, N-terminally truncated mouse D domain]” the figure was 39.26 ± 4.07.
As for “eGFP-D domain conjugate: enhanced green fluorescent protein modified with the D domain of human IGF-I (SEQ ID NO: 1) (PLKPAKSA; also: conjugated to eGFP)”, the “conjugation to plasma fibronectin (western blot)” value with fibronectin (factor XIIIa (FIG. 8A)) was “effective conjugation”. In addition, in the assay with fibronectin (factor XIIIa (FIG. 8B)), the “immobilization of the modified protein on ECM” value is given as “confirmed”.
